# Where two headings read alike, the source gives them in different places.
# Columns and labels:
# [1] = target: T1, DCCP-R (double-cubane cluster protein reductase) (Carboxydothermus hydrogenoformans, UniProt Q3AET8); assay: isothermal titration calorimetry; assay type: binding
# T1 sequence (Q3AET8 1-245): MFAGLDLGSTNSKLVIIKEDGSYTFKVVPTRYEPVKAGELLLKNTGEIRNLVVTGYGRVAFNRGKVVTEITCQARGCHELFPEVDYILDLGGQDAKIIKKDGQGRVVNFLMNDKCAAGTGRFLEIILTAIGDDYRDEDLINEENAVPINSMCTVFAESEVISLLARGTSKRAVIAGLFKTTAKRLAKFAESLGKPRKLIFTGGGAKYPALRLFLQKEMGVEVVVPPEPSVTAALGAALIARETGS
# DCCP:DCCP-R complex = target: T2, DCCP:DCCP-R complex (Carboxydothermus hydrogenoformans, UniProt Q3AET8); assay: isothermal titration calorimetry; assay type: binding; details: Mg2+; 50 mM Tris-HCl pH 8.0, 25 °C, anoxic; DCCP present in cell; reduced DCCP-R
# T2 sequence (Q3AET8 1-245): T1 sequence (Q3AET8 1-245)
# T2 sequence (Q3AET9 1-421 partner): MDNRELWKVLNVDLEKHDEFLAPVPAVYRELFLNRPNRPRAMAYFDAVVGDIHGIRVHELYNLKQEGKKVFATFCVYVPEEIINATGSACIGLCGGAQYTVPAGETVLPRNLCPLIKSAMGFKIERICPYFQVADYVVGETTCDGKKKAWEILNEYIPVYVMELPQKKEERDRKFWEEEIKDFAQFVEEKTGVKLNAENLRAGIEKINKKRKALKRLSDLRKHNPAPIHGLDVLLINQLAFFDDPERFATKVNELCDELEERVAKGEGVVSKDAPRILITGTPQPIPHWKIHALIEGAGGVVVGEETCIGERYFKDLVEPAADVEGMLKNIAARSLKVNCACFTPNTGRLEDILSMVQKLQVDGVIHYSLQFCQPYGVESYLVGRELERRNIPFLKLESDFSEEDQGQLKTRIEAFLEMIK
# [2] = target: double-cubane cluster protein (DCCP); assay: SEC
# [3] = target: double-cubane cluster protein (DCCP); assay: SEC; remark: listed apart in the source
# [4] = target: double-cubane cluster protein (DCCP); assay: ITC
# [5] = target: double-cubane cluster protein (DCCP); assay: ITC; remark: listed apart in the source
# [6] = target: double-cubane cluster protein reductase (DCCP-R); assay: SEC
# [7] = target: double-cubane cluster protein reductase (DCCP-R) from Carboxydothermus hydrogenoformans (Carboxydothermus hydrogenoformans); assay: SEC
compound,measurement,setting,value
"Nc1ncnc2c1ncn2[C@@H]1O[C@H](COP(=O)(O)OP(=O)(O)NP(=O)(O)O)[C@@H](O)[C@H]1O [MgADPNP, 5′-adenylyl β, γ-imidodiphosphate]",Kd,[1],15 ± 0.5 µM
same,Kd,DCCP:DCCP-R complex,7.1 ± 1.1 µM
Nc1ncnc2c1ncn2[C@@H]1O[C@H](COP(=O)(O)OP(=O)(O)O)[C@@H](O)[C@H]1O [MgADP],Kd,[1],42 ± 7 µM
double-cubane cluster protein (DCCP) (enzyme),stoichiometry N,[2],2
same,stoichiometry N,[3],2
double-cubane cluster protein reductase (DCCP-R) (enzyme),dH,[4],5.9 kcal/mol
same,dH,[5],-31.5 kcal/mol
same,stoichiometry N,[6],2
double-cubane cluster protein reductase (DCCP-R) from Carboxydothermus hydrogenoformans (enzyme),stoichiometry N,[7],2

# — article PMC9351452 (Proceedings of the National Academy of Sciences of the …, 2022)
